According to the supplement of paper PMC11136658:

Test system: peptide library, one residue held at a place counted from the Y acceptor
Experiment: relative phosphorylation of the sub-library (ratio to the mean residue at this position); higher = residue favoured
Method in brief: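 Purified recombinant kinases were incubated for 90 min in 384-well plates with biotinylated Tyr-centred peptide library mixtures, each fixing one residue at one position from −5 to +5, plus 50 μM ATP with γ-32P-ATP. Peptides were captured on streptavidin membranes, rinsed and quantified by phosphorimaging and ImageQuant. Intensities were normalized per position by the sum of the 18 (or 16, Ser/Thr-free library) randomized residues and multiplied by that number. Values give phosphorylation relative to the mean randomized residue.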

Chain of FLT3, construct: aa564-end, human (P36888 564-993, looked up): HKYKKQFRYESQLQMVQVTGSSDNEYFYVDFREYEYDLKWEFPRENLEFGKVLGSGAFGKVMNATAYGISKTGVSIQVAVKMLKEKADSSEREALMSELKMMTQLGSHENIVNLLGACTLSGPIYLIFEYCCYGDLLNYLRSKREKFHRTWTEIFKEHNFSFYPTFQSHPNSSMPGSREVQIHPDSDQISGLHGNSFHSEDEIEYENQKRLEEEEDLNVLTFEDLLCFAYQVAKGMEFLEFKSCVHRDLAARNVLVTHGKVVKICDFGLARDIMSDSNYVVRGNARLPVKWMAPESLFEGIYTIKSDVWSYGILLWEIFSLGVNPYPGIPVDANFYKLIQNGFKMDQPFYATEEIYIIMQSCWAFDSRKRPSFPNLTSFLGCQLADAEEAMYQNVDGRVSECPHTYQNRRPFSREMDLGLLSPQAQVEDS
Chain of FER, construct: aa-541-end, human (P16591 whole entry, looked up): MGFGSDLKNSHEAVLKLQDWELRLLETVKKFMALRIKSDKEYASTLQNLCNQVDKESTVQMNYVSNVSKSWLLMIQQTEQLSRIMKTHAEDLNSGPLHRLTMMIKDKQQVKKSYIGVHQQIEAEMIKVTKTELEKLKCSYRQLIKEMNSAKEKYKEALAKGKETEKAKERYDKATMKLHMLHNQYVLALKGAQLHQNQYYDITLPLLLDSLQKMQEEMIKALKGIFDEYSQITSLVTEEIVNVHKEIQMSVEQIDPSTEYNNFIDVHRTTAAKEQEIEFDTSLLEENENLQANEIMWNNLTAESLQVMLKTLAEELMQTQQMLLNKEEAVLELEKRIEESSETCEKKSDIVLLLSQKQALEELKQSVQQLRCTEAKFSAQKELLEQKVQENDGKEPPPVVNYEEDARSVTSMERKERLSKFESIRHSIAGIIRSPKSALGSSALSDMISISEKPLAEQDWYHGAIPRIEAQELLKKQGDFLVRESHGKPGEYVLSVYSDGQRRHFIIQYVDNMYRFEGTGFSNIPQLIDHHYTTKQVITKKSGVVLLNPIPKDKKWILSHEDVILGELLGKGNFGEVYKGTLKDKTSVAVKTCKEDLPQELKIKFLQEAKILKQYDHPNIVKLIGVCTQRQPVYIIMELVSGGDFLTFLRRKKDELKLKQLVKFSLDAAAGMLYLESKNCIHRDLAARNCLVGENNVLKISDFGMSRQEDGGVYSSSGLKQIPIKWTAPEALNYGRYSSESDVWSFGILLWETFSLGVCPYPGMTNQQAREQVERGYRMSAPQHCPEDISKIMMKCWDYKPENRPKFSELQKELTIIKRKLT

FER, construct: aa-541-end, human (from UniProt P16591)
relative phosphorylation
Settings | at +1 | at +2 | at +3 | at +4 | at +5 | at -1 | at -2 | at -3 | at -4 | at -5
A fixed | 1.7 | 0.886 | 0.866 | 0.927 | 1.07 | 0.942 | 1 | 0.818 | 1.1 | 1.05
D fixed | 1.32 | 0.911 | 0.521 | 0.838 | 0.592 | 1.12 | 1.15 | 1.29 | 1.31 | 1.22
E fixed | 2.5 | 1.28 | 0.611 | 1.42 | 0.604 | 1.19 | 1.48 | 1.74 | 1.62 | 1.13
F fixed | 0.517 | 1.27 | 1.41 | 1.11 | 1.29 | 1.45 | 0.696 | 0.988 | 1.05 | 0.972
G fixed | 1.24 | 0.645 | 0.606 | 0.94 | 0.882 | 0.427 | 1.09 | 1.1 | 1.12 | 1.17
H fixed | 0.647 | 0.83 | 1.93 | 1.12 | 0.933 | 1.52 | 1.1 | 1.07 | 0.885 | 0.982
I fixed | 0.832 | 1.03 | 1.73 | 0.911 | 1.14 | 1.85 | 0.934 | 0.804 | 0.92 | 1.01
K fixed | 0.31 | 0.646 | 0.36 | 0.941 | 0.58 | 0.357 | 0.735 | 0.617 | 0.798 | 0.831
L fixed | 0.71 | 1.15 | 1.06 | 0.874 | 1.31 | 1.43 | 0.916 | 0.84 | 0.958 | 0.977
M fixed | 0.969 | 0.973 | 1.12 | 1.29 | 1.08 | 1.06 | 0.76 | 1.01 | 0.93 | 1.06
N fixed | 0.751 | 1.18 | 0.836 | 0.923 | 0.708 | 0.983 | 1.26 | 1.35 | 0.973 | 1.12
P fixed | 0.323 | 0.867 | 0.89 | 0.873 | 2.09 | 1.05 | 1.05 | 0.971 | 1.08 | 1.02
Q fixed | 1.48 | 0.878 | 0.658 | 1.11 | 0.846 | 0.73 | 1.18 | 0.859 | 1.14 | 1.05
R fixed | 0.35 | 0.737 | 0.547 | 1.12 | 0.721 | 0.309 | 0.901 | 0.762 | 0.757 | 0.898
S fixed | 1.42 | 0.917 | 0.82 | 0.766 | 0.999 | 0.619 | 1.1 | 1 | 0.794 | 0.849
T fixed | 1.14 | 0.96 | 0.839 | 0.775 | 1.05 | 0.866 | 0.932 | 0.997 | 0.664 | 0.824
V fixed | 1.13 | 0.929 | 1.34 | 0.922 | 1.19 | 1.29 | 0.897 | 0.788 | 0.825 | 0.807
W fixed | 0.667 | 1.91 | 1.86 | 1.14 | 0.931 | 0.809 | 0.824 | 0.981 | 1.07 | 1.04
pThr fixed | 1.55 | 1.12 | 0.721 | 0.549 | 0.543 | 1.14 | 1.18 | 1.26 | 1.2 | 1.09
pTyr fixed | 2 | 1.26 | 1.01 | 0.849 | 0.471 | 3.56 | 1.58 | 1.81 | 1.63 | 1.13

FLT3, construct: aa564-end, human (from UniProt P36888)
relative phosphorylation
Settings | at +1 | at +2 | at +3 | at +4 | at +5 | at -1 | at -2 | at -3 | at -4 | at -5
A fixed | 0.822 | 0.62 | 0.639 | 0.968 | 0.955 | 0.749 | 0.806 | 0.766 | 1.05 | 0.952
D fixed | 0.318 | 0.629 | 0.321 | 0.688 | 0.696 | 1.49 | 1.19 | 1.44 | 1.33 | 1.14
E fixed | 0.643 | 0.89 | 0.227 | 0.826 | 0.771 | 1.2 | 1.15 | 1.69 | 1.56 | 1.15
F fixed | 2.12 | 1.22 | 1.72 | 0.984 | 1.18 | 1.12 | 0.669 | 0.834 | 1 | 0.998
G fixed | 0.431 | 0.368 | 0.603 | 0.904 | 1.19 | 0.574 | 0.972 | 0.786 | 1.21 | 1.16
H fixed | 1.7 | 0.78 | 0.96 | 1 | 1.15 | 1.56 | 1.1 | 0.946 | 0.938 | 0.976
I fixed | 1.6 | 1.19 | 1.52 | 1.05 | 0.961 | 1.25 | 0.954 | 0.688 | 0.913 | 0.871
K fixed | 0.705 | 1.02 | 0.895 | 1.2 | 0.902 | 0.583 | 0.843 | 1 | 0.874 | 1.05
L fixed | 1.21 | 1.2 | 1.3 | 0.878 | 1.07 | 1.18 | 0.88 | 0.878 | 1.02 | 0.997
M fixed | 1.2 | 1 | 1.09 | 1.22 | 1.18 | 1.02 | 0.701 | 1.03 | 0.889 | 0.869
N fixed | 0.455 | 1.1 | 0.54 | 0.807 | 0.864 | 1.25 | 1.23 | 1.46 | 0.951 | 1.36
P fixed | 0.297 | 0.685 | 0.959 | 0.732 | 1.18 | 0.777 | 1.08 | 0.719 | 0.903 | 0.833
Q fixed | 1 | 0.989 | 0.665 | 1.17 | 0.839 | 1.11 | 1.26 | 1.03 | 1.21 | 1.17
R fixed | 1.01 | 1.63 | 1.6 | 1.89 | 1.06 | 0.639 | 0.957 | 1.27 | 0.924 | 1.43
S fixed | 0.687 | 0.774 | 0.689 | 0.858 | 0.888 | 0.579 | 1.05 | 0.832 | 0.656 | 0.717
T fixed | 0.77 | 0.814 | 0.706 | 0.741 | 1.22 | 0.778 | 0.894 | 0.708 | 0.614 | 0.612
V fixed | 1.61 | 1.16 | 1.65 | 1.08 | 0.938 | 1.4 | 1.52 | 0.878 | 0.808 | 0.787
W fixed | 1.43 | 1.94 | 1.91 | 1 | 0.961 | 0.746 | 0.75 | 1.04 | 1.15 | 0.928
pThr fixed | 0.505 | 0.966 | 0.209 | 0.413 | 0.512 | 1.02 | 0.971 | 1.23 | 0.887 | 1.02
pTyr fixed | 1.92 | 1.34 | 0.334 | 0.649 | 0.693 | 2.37 | 1.29 | 1.63 | 1.43 | 1.11
